4 molecules from patent publication US20260048138A1, “NOVEL PI3K AND/OR PIKK INHIBITORS, ANTIBODY-DRUG CONJUGATES COMPRISING THE SAME AND USES THEREOF” (HUTCHMED LIMITED, priority 2024, published 2026) can be followed below.

The target of one test is T1, CD38 (Ramos cells) (Homo sapiens, UniProt P28907).
T1 construct: Ramos cells (ATCC, Cat. No. CRL-1596); host or cells: Ramos
The experiment in a line: Binding of antibody or ADC to Ramos cells (CD38+) by flow cytometry. Conditions: cell binding, MFI by flow cytometry. For orientation: A flow cytometer gives signals particle by particle.

Test [1] has as its target T2, CD20 (UniProt P11836 1-297, limits assumed).
T2 sequence (looked up): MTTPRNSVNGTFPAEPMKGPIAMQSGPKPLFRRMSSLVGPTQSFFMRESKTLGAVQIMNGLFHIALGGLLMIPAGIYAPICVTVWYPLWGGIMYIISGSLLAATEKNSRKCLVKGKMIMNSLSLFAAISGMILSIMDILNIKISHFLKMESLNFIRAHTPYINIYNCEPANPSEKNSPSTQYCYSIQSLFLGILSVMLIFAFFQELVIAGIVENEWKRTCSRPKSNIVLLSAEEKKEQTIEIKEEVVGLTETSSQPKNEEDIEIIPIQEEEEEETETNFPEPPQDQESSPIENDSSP
Kind of test: cell-based or functional assay.

The target in test [2] is T2, CD20. Kind of test: flow cytometry on Ramos cells (CD20+).
For test [3], the target named is CEACAM5/6. The experiment in a line: cell-based or functional assay.
For test [4], the target named is CEACAM5/6. The experiment in a line: flow cytometry on H2122 cells (CEACAM5/6+).

daratumumab: in the test with CD38 (Ramos cells), the EC50 is 3.51 nM.

B1: ADC-24 (antibody, human IgG1, kappa, V domains shown)
VH: QVQLQQPGAELVKPGASVKMSCKASGYTFTSYNMHWVKQTPGRGLEWIGAIYPGNGDTSYNQKFKGKATLTADKSSSTAYMQLSSLTSEDSAVYYCARSTYYGGDWYFNVWGAGTTVTVSA
VL: QIVLSQSPAILSASPGEKVTMTCRASSSVSYIHWFQQKPGSSPKPWIYATSNLASGVPVRFSGSGSGTSYSLTISRVEAEDAATYYCQQWTSNPPTFGGGTKLEIKR
For the molecule B1, the “IC50, nM, cell proliferation, Ramos cell line (CD20^+)” value with CD20 [1] is 27.7 nM. In the test with CD20 [2], this molecule yielded an EC50 of 0.457 nM.

B2: Rituximab (antibody, human IgG1, kappa, V domains shown)
VH: B1 VH
VL: B1 VL
As to B2, it took 0.691 nM to reach a half-maximal effect in the test with CD20 [2] (EC50).

B3: ADC-32 (antibody, human IgG1, kappa, V domains shown)
VH: QVQLVQSGAEVKKPGASVKVSCKASGYTFTDYAMHWVRQAPGQRLEWMGLISTYSGDTKYNQNFQGRVTMTVDKSASTAYMELSSLRSEDTAVYYCARGDYSGSRYWFAYWGQGTLVTVSS
VL: DIQMTQSPSSLSASVGDRVTITCQASENIYGALNWYQRKPGKSPKLLIYGASNLATGMPSRFSGSGSGTDYTFTISSLQPEDIATYYCQQVLSSPYTFGGGTKLEIKR
In the test with CEACAM5/6 [3], B3 displayed an IC50, nM, cell proliferation, H2122 cell line (CEACAM 5/6^+) of 0.29 nM. This molecule displayed an EC50 with CEACAM5/6 [4] of 4.26 nM.

What is called EC50 is the midpoint of the concentration-response curve. Read a high EC50 as lower potency in that assay.
